Source: the DeepSol protein solubility set

assay: soluble on expression in E. coli; label from the status in PepcDB or PDB records

**Q.** For “MDPRGILKAFPKRQKIHADASSKVLAKIPRREEGEEAEEWLSSLRAHVVRTGIGRARAELFEKQIVQHGGQLCPAQGPGVTHIVVDEGMDYERALRLLRLPQLPPGAQLVKSAWLSLCLQERRLVDVAGFSIFIPSRYLDHPQPSKAEQDASIPPGTHEALLQTALSPPPPPTRPVSPPQKAKEAPNTQAQPISDDEASDGEETQVSAADLEALISGHYPTSLEGDCEPSPAPAVLDKWVCAQPSSQKATNHNLHITEKLEVLAKAYSVQGDKWRALGYAKAINALKSFHKPVTSYQEACSIPGIGKRMAEKIIEILESGHLRKLDHISESVPVLELFSNIWGAGTKTAQMWYQQGFRSLEDIRSQASLTTQQAIGLKHYSDFLERMPREEATEIEQTVQKAAQAFNSGLLCVACGSYRRGKATCGDVDVLITHPDGRSHRGIFSRLLDSLRQEGFLTDDLVSQEENGQQQKYLGVCRLPGPGRRHRRLDIIVVPYSEFACALLYFTGSAHFNRSMRALAKTKGMSLSEHALSTAVVRNTHGCKVGPGRVLPTPTEKDVFRLLGLPYREPAERDW”, which “soluble on expression in E. coli” value is on record?
**A.** soluble

**Q.** For “MDPTQISHLALDIGGTLIKLVYFSANGDYSEESRNGCSVVKGRLCFAKFETRKIDDCLEFIRFNILHHSEVTIQVYSNRMAKATGGGAFKFADLFKEKLGILFDKEDEMCSLVGGVNFLLKTVPREAFTYLDGQKKFVEIDHNDLYPYLLVNIGSGVSMIKVDGDGKYERISGTSLGGGTFLGLGKLLTKCKSFDELLELSHHGNNRVIDMLVGDIYGGTDYSKIGLSSTAIASSFGKAISDGKELEDYQPEDVARSLLRMISNNIGQIAYLNALRFGLKRIFFGGFFIRGLEYTMDTISVAVHFWSRGEAKAMFLRHEGFLGALGAFTSYNDQSHNDLKPHHHTVQRAILNCSGHNFRHIPVTSNLNESETIECSINLV”, which “soluble on expression in E. coli” value is on record?
**A.** soluble

**Q.** For “MDQALLDGGYRCYTGEKIDVYFNTAICQHSGNCVRGNGKLFNLKRKPWIMPDEVDVATVVKVIDTCPSGALKYRHK”, which “soluble on expression in E. coli” value is on record?
**A.** soluble

**Q.** Which “soluble on expression in E. coli” value does the source give for “MDQLSEKQIWYYHIIPEYQTEKSFYACVRRSGMIKFDTFYFPHMLSARETQRSIKFGDGVWSGCLYDPDIYTDGKISIQGVGGVLFPREAEIGGCVCLCLIFLIKLGLSTKYMKSHVSFDVSCDL” here?
**A.** not soluble

**Q.** Which “soluble on expression in E. coli” value does the source give for “MDQNPNYNFGYGQAYGSGTDHTSDSTNNYNWASQWSQPESAASLATHTFPQYVSQQQQQQQQQAQQQAQNTYAAMNPISTFMQQQQRAQTFPQKKYGQQGGAPKPSAIRNNNFGAFGGGHALSQEWVQPMSQNQMGGPQGNRFFNNQKGGPFNQNKPNWRQNKPKGPAAPKKFDSTGKSPAMLLHELFKDVSEEYTEVEGVPKKYCCTLKVNGRTFQMESVNKKAAKQKCSELVVRDLRPDVHVTPFEEGVAAKAAAPVKKEIDAASGNGQNNKRNLLQADAISNQPTPKKVSAVKKAKLQLTPVESALSLLDLMQKIIAESAEKYSPVFEASEVPKDPEIPEVEVKKEEVDTNGENVANEKKSGWRKNETMHNVTLKFVEQNKQYTKMGPSRGVLKDMVIREALRDLFNVSHADITTVARRHASNRLGHDTTILQCLNTICSILNCTLTIECEPAEDRPLGIGRAYFMAKCTIIDHNENDLKFEVKSSSLASKAMAKDWVAQETLKNYFAIDPSSCVKTDAVSSQGPCALLHAMLNKQTKQKCKIAYEFKDNVPPVAGQATTTFYCECVIDETDRYIGVGRSKKLAKSEAAMQALKKLFKIDYDPAGNYPLALTSRAMTESKVSPLCRHIAEFCKREYHQMTEYYQIPPSNLFAAFLLVNAQEEKRVLAMGSSIQYIVEPDTLSGANGTSLLHLDAIILARRAMLKAFIHELSTVDSECSIFEKKEEGKAALKPNLRLVLYSNYSPPCIHAVDDAATKKLSYVTPTNLTCVPDDVLTYEQIKETKSLRVHCTADKLFKWNTLGIQGALLSNVLHPIFIDNIFFGSEAPVSDESLSYALQGRLGPNENEREIIVESMPVQMRMHMGISHLWHRGVDSVETLDYNTGRTSKGSPSRVCKAEIFEAYRKLNGVDQAVVNYAKAKEMASEYQYEKKVFYEKLEAAGLGKWQTKPAELVDSFTLAAFD” here?
**A.** not soluble

**Q.** For “MDRGTVFTFSPKGDIIELPVGATALDFAFMVHTQVGCKCVGAKVNGRMVTIDHKLKSGDKVEIITSKNSKGPSLEHHHHHH”, which “soluble on expression in E. coli” value is on record?
**A.** not soluble
